According to patent US20140087995A1 (published 2014):
Numbered stars: 1 amine (or outer) side, 2 acyl side, 3 side chain; on linkers, the order of the positions; unused ones are H or OH. Bridge positions count the residues as written; N and C are the ends. Side chains are listed from the residue outwards. Ends that are not written are not given here. * marks the point of attachment. C20 diacid = O=C(O)CCCCCCCCCCCCCCCCCCC(=O)*; γGlu = O=C(O)[C@H](CCC(=O)[*:2])N[*:1]; AEEA = NCCOCCOCC(=O)O

Tests used:
[1] = target: T1, human amylin 3(a) receptor (human calcitonin receptor co-expressed with RAMP-3) (human, UniProt P30988 25-474; O60896 24-148, limits assumed); assay: cell-based or functional assay
T1 sequence (looked up) 1: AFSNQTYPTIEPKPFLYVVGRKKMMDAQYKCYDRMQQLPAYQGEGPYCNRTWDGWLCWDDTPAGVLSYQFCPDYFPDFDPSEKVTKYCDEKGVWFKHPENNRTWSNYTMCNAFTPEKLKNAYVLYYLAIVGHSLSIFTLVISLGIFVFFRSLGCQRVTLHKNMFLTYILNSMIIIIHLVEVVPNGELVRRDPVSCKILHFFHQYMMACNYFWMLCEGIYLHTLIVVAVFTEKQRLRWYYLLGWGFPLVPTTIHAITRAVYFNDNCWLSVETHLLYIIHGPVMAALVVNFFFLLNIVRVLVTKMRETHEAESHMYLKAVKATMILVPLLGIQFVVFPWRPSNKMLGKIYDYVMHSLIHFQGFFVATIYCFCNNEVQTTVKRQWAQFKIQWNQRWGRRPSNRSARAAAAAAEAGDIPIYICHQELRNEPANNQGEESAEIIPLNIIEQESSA
T1 sequence (looked up) 2: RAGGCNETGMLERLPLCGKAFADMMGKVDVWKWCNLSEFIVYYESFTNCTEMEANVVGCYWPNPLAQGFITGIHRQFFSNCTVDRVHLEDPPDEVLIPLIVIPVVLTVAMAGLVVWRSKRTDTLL

[2] = target: T2, human amylin receptor (human calcitonin receptor co-expressed with RAMP-3; amylin 3(a) receptor) (human, UniProt P30988 25-474; O60896 24-148, limits assumed); assay: ratio of hCTR binding IC50 to hAmylin-R binding IC50 (reference: human calcitonin receptor)
T2 construct: whole, on cells; Used as cell membranes prepared from Amylin 3(a)/CRE-luc BHK cells (Assay V), not as intact cells; also called hAmylin-R; hAmylinR
T2 sequence (looked up) 1: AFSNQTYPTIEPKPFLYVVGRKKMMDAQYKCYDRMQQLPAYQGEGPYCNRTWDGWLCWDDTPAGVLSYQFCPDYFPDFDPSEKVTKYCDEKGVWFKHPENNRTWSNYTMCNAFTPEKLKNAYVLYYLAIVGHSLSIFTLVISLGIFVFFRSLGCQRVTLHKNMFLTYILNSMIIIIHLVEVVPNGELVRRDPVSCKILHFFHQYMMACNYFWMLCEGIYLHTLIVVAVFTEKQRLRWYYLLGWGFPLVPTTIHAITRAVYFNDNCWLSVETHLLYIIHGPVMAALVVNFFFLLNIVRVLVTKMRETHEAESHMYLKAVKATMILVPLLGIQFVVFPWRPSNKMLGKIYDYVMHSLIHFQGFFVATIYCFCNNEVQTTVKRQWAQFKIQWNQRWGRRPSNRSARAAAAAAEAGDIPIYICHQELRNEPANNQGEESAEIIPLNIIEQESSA
T2 sequence (looked up) 2: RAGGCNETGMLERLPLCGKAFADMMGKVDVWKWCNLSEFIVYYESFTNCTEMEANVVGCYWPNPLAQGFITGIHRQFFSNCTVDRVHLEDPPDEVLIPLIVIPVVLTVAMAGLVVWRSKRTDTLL
Description: The resulting pellet was resuspended, homogenized and centrifuged (20.000 rpm, 15 min) in a buffer containing 20 mM Na-HEPES and 0.1 mM EDTA (pH 7.4, buffer 2). The resulting pellet was resuspended in buffer 2 and protein concentration was measured (BCA protein Assay, Pierce). The homogenate was kept cold during the whole procedure. The membranes were kept at −80° C. until use. The assay was performed in a 384 well Optiplate (PerkinElmer) in a total volume of 40 ul. Membranes were mixed with SPA beads. Final concentration of membranes 35 ng/μL final and SPA beads was 0.05 mg/well. Test-compounds were dissolved in DMSO and further diluted in assay buffer (50 mM Hepes, pH 7.4, 1 mM CaCl2, 5 mM MgCl₂, 0.1% OA and 0.02% Tween20). […] The final mixture was incubated with shaking at 400 rpm for 120 min at 25° C. prior to centrifugation (1500 rpm, 10 min). Samples were analyzed on TopCounter™ (Packard). The IC₅₀ was calculated using (one site binding competition analysis) GraphPad Prism5 as a measure of receptor affinity.
Membranes were prepared in the following way; the cells were rinsed with PBS and incubated with Versene for approximately 5 min before harvesting. The cells were flushed with PBS and the cell-suspension was centrifuged for 5 min at 1000 rpm. Cells were homogenized (Ultrathurrax) in a buffer containing 20 mM Na-HEPES and 10 mM EDTA (pH 7.4) and centrifuged at 20.000 rpm for 15 min. The resulting pellet was resuspended, homogenized and centrifuged (20.000 rpm, 15 min) in a buffer containing 20 mM Na-HEPES and 0.1 mM EDTA (pH 7.4, buffer 2). The resulting pellet was resuspended in buffer 2 and protein concentration was measured (BCA protein Assay, Pierce). The homogenate was kept cold during the whole procedure. The membranes were kept at −80° C. until use. Assay was performed in a 384 well Optiplate (PerkinElmer) in a total volume of 40 ul. Membranes were mixed with SPA beads.

[3] = target: T3, human calcitonin receptor (human, UniProt P30988 25-474); assay: SPA competition against 125I-calcitonin, membranes with human calcitonin receptor (Assay VII)
T3 construct: whole, on cells; Used as cell membranes prepared from the transfected BHK cells (Assay VII), not as intact cells; also called hCTR; hCT
T3 sequence (looked up): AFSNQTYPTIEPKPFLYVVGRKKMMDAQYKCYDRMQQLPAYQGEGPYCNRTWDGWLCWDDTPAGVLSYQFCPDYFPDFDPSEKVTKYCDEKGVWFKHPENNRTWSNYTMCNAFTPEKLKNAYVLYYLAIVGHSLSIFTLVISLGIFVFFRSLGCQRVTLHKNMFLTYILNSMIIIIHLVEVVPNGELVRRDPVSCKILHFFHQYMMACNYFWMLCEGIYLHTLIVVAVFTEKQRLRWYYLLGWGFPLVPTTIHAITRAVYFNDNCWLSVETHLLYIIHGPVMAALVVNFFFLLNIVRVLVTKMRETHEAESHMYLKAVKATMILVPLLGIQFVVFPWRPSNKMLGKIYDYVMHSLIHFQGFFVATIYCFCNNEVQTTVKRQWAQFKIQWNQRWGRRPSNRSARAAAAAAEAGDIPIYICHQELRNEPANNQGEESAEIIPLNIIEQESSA
Summary of the method: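 BHK hCTR membranes 35 ng/μL + SPA beads 0.05 mg/well; buffer 50 mM Hepes pH 7.4, 1 mM CaCl2, 5 mM MgCl₂, 0.1% OA, 0.02% Tween20. 120 min, 25° C., shaking. Scintillation count; IC50 by one-site binding competition.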

Row | Binder | Ratio hCT/hAmylin funct. [1] | Ratio hCT/hAmylin binding [2] | IC50 [3] [nM]
1 | {C20 diacid-γGlu-AEEA-AEEA}-KCNTATCATQRLAEFLRHSSPNFGAIPSSTNVGSNTP-NH2 (disulfide 2-7 (inferred), also called compound 20) | 3.6 | – | –
2 | K([AEEA-γGlu-C20 diacid])CNTATCATQRLARFLRHSSPNFGAIPSSTPVGSNTY-NH2 (disulfide 2-7; N-terminus assumed; SMILES CC[C@H](C)[C@H](NC(=O)[C@H](C)NC(=O)CNC(=O)[C@H](Cc1ccccc1)NC(=O)[C@H](CC(N)=O)NC(=O)[C@@H]1CCCN1C(=O)[C@H](CO)NC(=O)[C@H](CO)NC(=O)[C@H](Cc1c[nH]cn1)NC(=O)[C@H](CCCNC(=N)N)NC(=O)[C@H](CC(C)C)NC(=O)[C@H](Cc1ccccc1)NC(=O)[C@H](CCCNC(=N)N)NC(=O)[C@H](C)NC(=O)[C@H](CC(C)C)NC(=O)[C@H](CCCNC(=N)N)NC(=O)[C@H](CCC(N)=O)NC(=O)[C@@H](NC(=O)[C@H](C)NC(=O)[C@@H]1CSSC[C@H](NC(=O)[C@@H](N)CCCCNC(=O)COCCOCCNC(=O)CC[C@H](NC(=O)CCCCCCCCCCCCCCCCCCC(=O)O)C(=O)O)C(=O)N[C@@H](CC(N)=O)C(=O)N[C@@H]([C@@H](C)O)C(=O)N[C@@H](C)C(=O)N[C@@H]([C@@H](C)O)C(=O)N1)[C@@H](C)O)C(=O)N1CCC[C@H]1C(=O)N[C@@H](CO)C(=O)N[C@@H](CO)C(=O)N[C@H](C(=O)N1CCC[C@H]1C(=O)N[C@H](C(=O)NCC(=O)N[C@@H](CO)C(=O)N[C@@H](CC(N)=O)C(=O)N[C@H](C(=O)N[C@@H](Cc1ccc(O)cc1)C(N)=O)[C@@H](C)O)C(C)C)[C@@H](C)O, also called compound 64) | – | 126 | 56
3 | K([AEEA-γGlu-C20 diacid])CNTATCATQRLANFLRHSSPNFGAIPSPTPVGSNTY-NH2 (disulfide 2-7; N-terminus assumed; SMILES CC[C@H](C)[C@H](NC(=O)[C@H](C)NC(=O)CNC(=O)[C@H](Cc1ccccc1)NC(=O)[C@H](CC(N)=O)NC(=O)[C@@H]1CCCN1C(=O)[C@H](CO)NC(=O)[C@H](CO)NC(=O)[C@H](Cc1c[nH]cn1)NC(=O)[C@H](CCCNC(=N)N)NC(=O)[C@H](CC(C)C)NC(=O)[C@H](Cc1ccccc1)NC(=O)[C@H](CC(N)=O)NC(=O)[C@H](C)NC(=O)[C@H](CC(C)C)NC(=O)[C@H](CCCNC(=N)N)NC(=O)[C@H](CCC(N)=O)NC(=O)[C@@H](NC(=O)[C@H](C)NC(=O)[C@@H]1CSSC[C@H](NC(=O)[C@@H](N)CCCCNC(=O)COCCOCCNC(=O)CC[C@H](NC(=O)CCCCCCCCCCCCCCCCCCC(=O)O)C(=O)O)C(=O)N[C@@H](CC(N)=O)C(=O)N[C@@H]([C@@H](C)O)C(=O)N[C@@H](C)C(=O)N[C@@H]([C@@H](C)O)C(=O)N1)[C@@H](C)O)C(=O)N1CCC[C@H]1C(=O)N[C@@H](CO)C(=O)N1CCC[C@H]1C(=O)N[C@H](C(=O)N1CCC[C@H]1C(=O)N[C@H](C(=O)NCC(=O)N[C@@H](CO)C(=O)N[C@@H](CC(N)=O)C(=O)N[C@H](C(=O)N[C@@H](Cc1ccc(O)cc1)C(N)=O)[C@@H](C)O)C(C)C)[C@@H](C)O, also called compound 54) | – | 146 | 4.38
4 | K([AEEA-γGlu-C20 diacid])CNTATCATQRLANFLRHSSPNFGAIPPSTNVGPNTY-NH2 (disulfide 2-7; N-terminus assumed; SMILES CC[C@H](C)[C@H](NC(=O)[C@H](C)NC(=O)CNC(=O)[C@H](Cc1ccccc1)NC(=O)[C@H](CC(N)=O)NC(=O)[C@@H]1CCCN1C(=O)[C@H](CO)NC(=O)[C@H](CO)NC(=O)[C@H](Cc1c[nH]cn1)NC(=O)[C@H](CCCNC(=N)N)NC(=O)[C@H](CC(C)C)NC(=O)[C@H](Cc1ccccc1)NC(=O)[C@H](CC(N)=O)NC(=O)[C@H](C)NC(=O)[C@H](CC(C)C)NC(=O)[C@H](CCCNC(=N)N)NC(=O)[C@H](CCC(N)=O)NC(=O)[C@@H](NC(=O)[C@H](C)NC(=O)[C@@H]1CSSC[C@H](NC(=O)[C@@H](N)CCCCNC(=O)COCCOCCNC(=O)CC[C@H](NC(=O)CCCCCCCCCCCCCCCCCCC(=O)O)C(=O)O)C(=O)N[C@@H](CC(N)=O)C(=O)N[C@@H]([C@@H](C)O)C(=O)N[C@@H](C)C(=O)N[C@@H]([C@@H](C)O)C(=O)N1)[C@@H](C)O)C(=O)N1CCC[C@H]1C(=O)N1CCC[C@H]1C(=O)N[C@@H](CO)C(=O)N[C@H](C(=O)N[C@@H](CC(N)=O)C(=O)N[C@H](C(=O)NCC(=O)N1CCC[C@H]1C(=O)N[C@@H](CC(N)=O)C(=O)N[C@H](C(=O)N[C@@H](Cc1ccc(O)cc1)C(N)=O)[C@@H](C)O)C(C)C)[C@@H](C)O, also called compound 55) | – | 51.8 | 2.17
5 | K([AEEA-γGlu-C20 diacid])CNTATCATQRLANFLRHSSPNFGAIPPSTPVGSNTY-NH2 (disulfide 2-7, also called compound 53) | – | 104 | 5.38
6 | {C20 diacid-γGlu}-GRCNTATCATQRLAHFLRHSSPNFGAIPSSTNVGPNTY-NH2 (disulfide 3-8 (inferred)) | 2.9 | – | –
7 | {C20 diacid-γGlu}-GRCNTATCATQRLAAFLRHSSPNFGAIPSSTNVGPNTY-NH2 (disulfide 3-8 (inferred)) | 2.1 | – | –

Next, values leading:

Row | Ratio hCT/hAmylin funct. [1] | Ratio hCT/hAmylin binding [2] | IC50 [3] [nM] | Binder
8 | 0.9 | – | – | K([γGlu-C20 diacid])CNTATCATQRLAEFLRHSSPNFGAIPSSTNVGPNTP-NH2 (disulfide 2-7 (inferred))
9 | 0.8 | – | – | K([γGlu-C20 diacid])CNTATCATQRLAHFLRHSSPNFGAIPSSTNVGPNTP-NH2 (disulfide 2-7 (inferred))
10 | 2.2 | – | – | K([γGlu-γGlu-C20 diacid])CNTATCATQRLAEFLRHSSPNFGAIPSSTNVGSNTP-NH2 (disulfide 2-7 (inferred), also called compound 13)
11 | 1.8 | – | – | K([γGlu-C20 diacid])CNTATCATQRLAEFLRHSSPNFGAIPSSTNVGSNTP-NH2 (disulfide 2-7 (inferred), also called compound 12)
12 | 1.6 | – | – | {C20 diacid-γGlu-γGlu}-KCNTATCATQRLAEFLRHSSPNFGAIPSSTNVGSNTP-NH2 (disulfide 2-7 (inferred), also called compound 14)
